Experimental data from article PMC4355727.

Target: FLAG-tagged Rab32 T39N (UniProt Q13637)
Test: co-IP

Chain of UniProt Q13637 (Q13637 whole entry T39N): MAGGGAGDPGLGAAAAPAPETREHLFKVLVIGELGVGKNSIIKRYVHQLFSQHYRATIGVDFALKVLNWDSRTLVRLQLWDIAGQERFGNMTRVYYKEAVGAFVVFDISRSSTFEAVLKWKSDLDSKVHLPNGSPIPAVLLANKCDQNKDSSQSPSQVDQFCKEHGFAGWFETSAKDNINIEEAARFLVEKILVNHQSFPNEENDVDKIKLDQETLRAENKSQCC

fraction of the interaction detected with active Rab32 Q85L: 0.25
Substance: HA-tagged Drp1 S656A (natural protein)
